Source: article PMC6237600

Biological target: c-met receptor tyrosine kinase (native, on MM cell surface) (Homo sapiens) (UniProt P08581)
Assay: flow cytometry cell binding
Details: MM.1S cells; library signal subtracted; 5 mM MgCl2; 1x PBS, 4.5 g/L glucose, 5 mM MgCl2, 0.1 mg/mL yeast tRNA, 1 mg/mL BSA, 4 C, 30 min; 3e5 cells in 200 uL; pH not stated

Chain of c-met receptor tyrosine kinase (native, on MM cell surface) (Homo sapiens) (P08581 25-1390): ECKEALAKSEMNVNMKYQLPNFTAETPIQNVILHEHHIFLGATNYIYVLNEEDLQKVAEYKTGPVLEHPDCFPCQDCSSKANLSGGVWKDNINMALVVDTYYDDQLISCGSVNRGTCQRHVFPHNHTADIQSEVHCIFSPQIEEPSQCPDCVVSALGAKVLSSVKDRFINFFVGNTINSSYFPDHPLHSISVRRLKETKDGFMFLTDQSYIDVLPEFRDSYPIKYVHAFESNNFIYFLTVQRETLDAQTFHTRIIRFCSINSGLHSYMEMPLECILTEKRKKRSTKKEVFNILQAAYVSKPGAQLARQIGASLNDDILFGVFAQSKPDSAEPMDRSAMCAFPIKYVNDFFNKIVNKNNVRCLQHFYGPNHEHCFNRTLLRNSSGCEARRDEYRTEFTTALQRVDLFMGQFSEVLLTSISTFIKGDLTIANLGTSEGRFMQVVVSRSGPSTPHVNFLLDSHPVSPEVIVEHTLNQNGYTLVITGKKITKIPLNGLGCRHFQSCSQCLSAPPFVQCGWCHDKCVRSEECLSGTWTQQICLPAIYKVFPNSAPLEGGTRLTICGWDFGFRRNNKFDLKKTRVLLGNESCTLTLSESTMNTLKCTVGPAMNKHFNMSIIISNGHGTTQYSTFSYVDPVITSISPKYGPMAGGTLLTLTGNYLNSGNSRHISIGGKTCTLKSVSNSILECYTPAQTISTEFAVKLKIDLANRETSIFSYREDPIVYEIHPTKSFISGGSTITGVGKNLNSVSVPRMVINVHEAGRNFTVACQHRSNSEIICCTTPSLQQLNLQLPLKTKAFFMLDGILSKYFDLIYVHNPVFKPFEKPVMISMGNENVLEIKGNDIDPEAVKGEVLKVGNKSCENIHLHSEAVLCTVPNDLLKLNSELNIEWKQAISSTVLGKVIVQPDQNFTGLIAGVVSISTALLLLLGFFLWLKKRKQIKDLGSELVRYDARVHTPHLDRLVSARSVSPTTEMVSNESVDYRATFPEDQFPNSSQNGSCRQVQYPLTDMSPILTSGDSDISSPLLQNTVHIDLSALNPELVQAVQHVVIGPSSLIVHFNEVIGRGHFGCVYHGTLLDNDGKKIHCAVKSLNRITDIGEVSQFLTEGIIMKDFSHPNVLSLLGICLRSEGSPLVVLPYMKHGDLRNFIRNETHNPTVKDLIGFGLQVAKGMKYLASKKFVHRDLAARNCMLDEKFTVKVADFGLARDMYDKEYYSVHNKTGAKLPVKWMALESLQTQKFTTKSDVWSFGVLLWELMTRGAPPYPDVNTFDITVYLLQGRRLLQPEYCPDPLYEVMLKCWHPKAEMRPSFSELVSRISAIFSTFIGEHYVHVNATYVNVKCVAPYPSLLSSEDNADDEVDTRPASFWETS

## ATCAGGCTGGATGGTAGCTCGGTCGGGGTGGGTGGGTTGGCAAGTCTGAT [SL1]
  Kd: 136 nM
